From the nanobody polyreactivity screen of Harvey et al. (2022)

Test: yeast display, Sf9 membrane polyspecificity reagent, FACS + sequencing; frameworks hold sequencing errors
In short: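 Nanobodies came from a synthetic yeast display library in Saccharomyces cerevisiae BJ5465, induced with galactose for 36–48 hours and stained for 1 hour at 4 °C with 10% biotinylated, detergent-solubilized Sf9 membrane reagent. Cells were enriched on streptavidin microbeads and then FACS-sorted, with low and high (top ~1%) gates set on anti-HA fluorescence for expression and streptavidin fluorescence for reagent binding. Each polyreactivity label reflects the gate a clone came from. Genes were amplified by colony PCR, sequenced by MiSeq 2 × 250 and filtered by CDR length.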
With “QVQLVESGGGLVQAGGSLRLSCAASGRTFYQYAMGWYRQAPGKERELVAAISRSGTSTYYADSVKGRFTISRDNAKNTVYLQMNSLKPEDTAVYYCYVLRYDYWGQGTQVTVSS” the “polyreactivity (PSR sort gate)” value was “high polyreactivity”. With “QDQLVESGGGLVQAGGSLRLSCAASGITFWYYAMGWYRQAPGKERELVAAITRSGRTNYADSVKGRFTISRDYAKNTVYLQMNILKPEDTAVYYCAVDLYSFSPRYYYWGQGTQVTVSS” the “polyreactivity (PSR sort gate)” value was “low polyreactivity”. With “QVQLVESGGGLVQAGGSLRLSCAASGRIFRAYAMGWYRQAPGKERELVAAISYRGGSTYYADSVKGRFTISRDNAKNTVYLQMNSLKPEDTAVYYCAADSDRSVWIYGYSGQGTQVTVSS” the “polyreactivity (PSR sort gate)” value was “low polyreactivity”. For “QGQLVESGGGLVQAGGSLRLSCAASGSIFVRNAMGWYRQAPGKERELVAADSVKGRFTISRDNAKNTVYLQMNSLKPEDTAVYYCNKDYIIRRGAIVYYGFDYWGHGTQVTVSS”, the “polyreactivity (PSR sort gate)” value was “low polyreactivity”. In the case of “QVQLVESGGGLVQAGGSLRLSCAASGIPRNTMGWYRQAPGKETELVASISTSGGSTYYADSVKGRFTISRDNAKNTVYLQMNSLKPEDTAVYYCAKKGYASRYFIYDYWGQGTQVTVSS”, the “polyreactivity (PSR sort gate)” value is reported as “low polyreactivity”. With “QVQLVESGGGLVQAGGILRLSCDASGRIFRANAMGWYRQAPGKERELVASITYSGGSTYYADSVKGRFTISRDNAKNTVYLPMNSLNPEDTAVYYCARAGISSGGYYYWGQGTQVTVSS” the “polyreactivity (PSR sort gate)” value was “low polyreactivity”. With “QVQLVESGGGLVQAGGSLRLSCAASGRTFTPYTRGWYRQAPGKEREFVPAIRTGGNTYYADSVKGRFTISRDNAKNTVYLQMNSLKPEDTAVYYCAARDRIGYRLYYWGQGTQVTVSS” the “polyreactivity (PSR sort gate)” value was “high polyreactivity”. For “QVHLVESRGGLVQAGGSLRLSCAASGRPFNPYAMGWYRQAPGKEREFVYADSVKGRFTISRDNAKNTVYLQMNSLKPEDTAVYYCAADVYPDTLHPYNYDYWGQGTQVTVSS”, the “polyreactivity (PSR sort gate)” value was “low polyreactivity”. With “QGQLVESGGVLVQGGGSLRLSCAASGSIFVYNAMGWSRQAPGKERELVAANTSSGASTYYADSVKGRFPISRDNAKNTVYLQMISLNPEDTDVYYCNAGADSTVGNYVTSFSQYDFWGQGTQVTVSS” the “polyreactivity (PSR sort gate)” value was “low polyreactivity”. For “QVQLVESGGVLVQAGGSLRLSCAASGRIFPGYVMGWYRQAHGKERELVAAITRGGSTYYADSVKGRFTISRDNAKNTVYLQMNSLKPEDTAVYYCAAKHSHIHYNYWGQGTQVTVSS”, the “polyreactivity (PSR sort gate)” value was “low polyreactivity”. For “QVQLVESGGCLVQAGGSLRLSCAASGFTFGRYAMGWYRQAPGKEREFVAAISYTGTSTYYADSVKGRFTISRDNAKNTVYLQMNSLKPEDTAVYYCNAVHPGTVAYDSWGQGTQVTVSS”, the “polyreactivity (PSR sort gate)” value was “high polyreactivity”. For “QVQLVESGGGLVQAGGSLRLSCAASGSTFPTYAMGWYRQAPGKERELVAAITSGSGTNTYYADSVKGRFTISRDNAKNTVYLQMNSLKPEDTAVYYCAKSFRKKYGWGQGTQVTVSS”, the “polyreactivity (PSR sort gate)” value was “high polyreactivity”. For “QLHLVESGGGLVQAGGSLRLSCAASGITFAGYALGWYRQAPGKERELVASITWGGGRTYYADSVKGRFTSSRDNAKNTVYLQMNSLKPEATAVYYCATRRRPQYNKYDYWGQGTQLTVSS”, the “polyreactivity (PSR sort gate)” value was “high polyreactivity”. In the case of “QVQLVESGGGLVQAGGSLRLSCAASGRTFINYAKGWYRQAPGKERELVAAITTGGGGTYYADSVKGRFTISRDNAKNTVYLQMNSLKPEDTAVYYCAAEGTGYWGIVGYYYWGQGTQVTVSS”, the “polyreactivity (PSR sort gate)” value is reported as “low polyreactivity”. In the case of “QVQLQESAAGLVQAGGSLRMSCAASGNIFDADIMGWYRQEPGKERELVASITDGRRTNYADSVKGRYTISRDSEKNTVYLQMNSLKPEDTAVYYCAAIAYPVVPTYFDYDSDYFHWGQGTQVTVSS”, the “polyreactivity (PSR sort gate)” value is reported as “high polyreactivity”. For “QVQLVESGGGLVQAGGSLRLSCAASGSTFFYYAMGLYRQAPGKERELVADITSSGGRTYYADSVKGRFTISRDNAKNTVYLQMNSLKPEDTAVYYCAARDYRQSRYEYWGQGTQVTVSS”, the “polyreactivity (PSR sort gate)” value was “high polyreactivity”. In the case of “QVQLVESGGGLVQAGGSLRFSCAASGGIFWHYTMGWYRQAHGKERELVAAITRRGGSTYYADSVKGRFTISRDNAKNTVYLQINSLKPEDTAVYYCAADFLPQSYNWYDYWGQGTQVTVAS”, the “polyreactivity (PSR sort gate)” value is reported as “low polyreactivity”. In the case of “QVQLVESGGGLVQAGGSLRLSCAASGRIFWYYAMGWYRQAPGKEREFVAAITRRGGSTYYADSVKGRFTISRDNAKNTVYLQMNSLKPEDTAVYYCAAVGQKRSLGYSWGQGTQVTVSS”, the “polyreactivity (PSR sort gate)” value is reported as “low polyreactivity”. For “QVQLVESGGGLVQAGGSLRLSCAASGSTFSFNDMGWYRQAPGKERELVADISWSGDTTYADSVKGRFTISRDNAKNTVYLQMNSLKPEDTAVYYCNAEGFSIAFYANWVVQWEFDFWGQGTQVSVSS”, the “polyreactivity (PSR sort gate)” value was “high polyreactivity”. For “QVQLVESGGGLVQAGGSLRLSCAASGLTFWDNAMGWYRQARGKERELVAAIRGGGSTYYADSVKGRFTISRDNAKNTVYLQMNSIIPEDTAVYYCNKQYWYWSNTLTIRDYWGQGTQVTVSS”, the “polyreactivity (PSR sort gate)” value was “low polyreactivity”. For “QVQLVESGGGLVQAGGSLRLSCAASGSTFAYNAMGWYRQAPGKERELVATITSGGSTSYADSVKGRFTISRDNAKNTVYLQMNSLKPEDTAVYYCAARKVTKSTYNYWGQGTQVTVSS”, the “polyreactivity (PSR sort gate)” value was “low polyreactivity”.
